# Data: patent publication US12037382
# Assays:
# [1] = target: US28 wild type, G protein-coupled receptor of human cytomegalovirus strain VHL/E (human cytomegalovirus strain VHL/E); test: displacement of 125I-CCL5 from US28-expressing HEK293T membranes by unlabeled CCL5
# [2] = target: US28 wild type, G protein-coupled receptor of human cytomegalovirus strain VHL/E (human cytomegalovirus strain VHL/E); test: cell-based or functional assay
# [3] = target: US28 wild type, G protein-coupled receptor of human cytomegalovirus strain VHL/E (human cytomegalovirus strain VHL/E); test: competition of unlabeled CCL5 against 125I-CCL5 on US28
# human chemokine CCL5, sequence (P13501 24-91 limits assumed): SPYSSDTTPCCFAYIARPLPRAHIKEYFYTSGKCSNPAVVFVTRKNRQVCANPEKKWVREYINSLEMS
substance,measurement,setting,value
human chemokine CCL5 (from UniProt P13501 24-91) (ligand),IC50 (read off the curve),[1],3 nM
same,CCL5-induced accumulation of inositol phosphates (EC80),[2],31.6 nM
same,IC50 (read off the curve),[3],1 nM
